Laboratory results: paper PMC3863973 (Nature Communications, 2013)
Substitutions are numbered along the chain they refer to.

T1: His-tagged KaiC-WT (Synechococcus elongatus PCC 7942, UniProt Q79PF4 1-519)
T1 sequence: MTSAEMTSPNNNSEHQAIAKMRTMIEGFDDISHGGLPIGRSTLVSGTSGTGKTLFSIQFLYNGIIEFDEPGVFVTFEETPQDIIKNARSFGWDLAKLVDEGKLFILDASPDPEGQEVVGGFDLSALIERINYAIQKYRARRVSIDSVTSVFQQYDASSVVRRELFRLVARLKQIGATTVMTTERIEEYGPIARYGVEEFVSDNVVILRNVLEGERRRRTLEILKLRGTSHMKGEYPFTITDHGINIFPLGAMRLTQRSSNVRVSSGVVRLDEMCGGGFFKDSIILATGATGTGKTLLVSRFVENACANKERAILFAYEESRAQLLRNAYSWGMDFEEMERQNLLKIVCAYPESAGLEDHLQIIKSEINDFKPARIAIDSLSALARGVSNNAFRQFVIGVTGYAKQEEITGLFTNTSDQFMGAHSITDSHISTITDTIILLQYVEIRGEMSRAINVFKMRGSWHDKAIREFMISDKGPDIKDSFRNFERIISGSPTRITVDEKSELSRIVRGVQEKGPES

T2: FLAG-tagged KaiC-E318Q (Synechococcus elongatus PCC 7942, UniProt Q79PF4 1-519, E318Q)
T2 sequence: T1 sequence with E318Q

B1: FLAG-tagged KaiC-WT (enzyme)
chain: T1 sequence
B2: His-tagged KaiC-AA (enzyme)
chain: T1 sequence with S431A, T432A
B3: His-tagged KaiC-DA (enzyme)
chain: T1 sequence with S431D, T432A
B4: His-tagged KaiC-AE (enzyme)
chain: T1 sequence with S431A, T432E

Legend:
[1] = target: mutant KaiC (His-tagged KaiC-AA, -DE, -DA or -AE, as a group); assay: pull-down
[2] = target: B3; assay: pull-down
[3] = target: T1, His-tagged KaiC-WT; assay: pull-down
[4] = target: B2; assay: pull-down
[5] = target: B4; assay: pull-down
[6] = target: T2, FLAG-tagged KaiC-E318Q; assay: co-IP
[7] = target: B1; assay: co-IP

Binder: B1
stoichiometry N [1]: 4 to 5 | binding result [2]: binds | binding result [3]: binds | binding result [4]: binds | binding result [5]: binds

Binder: B2
stoichiometry N [6]: 1

Binder: B3
stoichiometry N [7]: ~1

Binder: B4
stoichiometry N [7]: ~1
